Laboratory results: the supplement of paper PMC12855868

B1: library; numbered along this chain (parent)
chain: MAAAGGARLLRAASAVLGGPAGRWLHHAGSRAGSSGLLRNRGPGGSAEASRSLSVSARARSSSEDKITVHFINRDGETLTTKGKVGDSLLDVVVENNLDIDGFGACEGTLACSTCHLIFEDHIYEKLDAITDEENDMLDLAYGLTDRSRLGCQICLTKSMDNMTVRVPETVADARQSIDVGKTS

Variants of: B1
Assay: scaled log2 fold change in cell abundance, elesclomol vs control (0 = silent mean, 1 = nonsense mean) (scaled log2 ratio); higher = higher viability under elesclomol (loss of FDX1 cuproptosis function)
Conditions: glucose 10 mM
[1] = with ABC1 FDX1 KO, elesclomol 5 nM, 14 days
[2] = with HEK293T FDX1 KO, elesclomol 40 nM, 11 days
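Note: variant abundance is its share of total variant reads in each endpoint sample, from next-generation sequencing of the integrated ORF PCR-amplified out of genomic DNA.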

Variant | scaled log2 fold change [1] | scaled log2 fold change [2]
MAAAGGARLLRAASAVLGGPAGRWLHHAGSRAGSSGLLRNRGPGGSAEASRSLSVSARARSSSEDKITVHFINRDGETLTTKGKVGDSLLDVVVENNLDIDGFGACEGTLACSTCHLIFEDHIYEKLDAITDEENDMLDLAYGLTDRSRLGCQICLTKSMDQMTVRVPETVADARQSIDVGKTS [N162Q] | 0.14 | -1.17
MAAAGGARLLRAASAVLGGPAGRWLHHAGSRAGSSGLLRNRGPGGSAEASRSLSVSARARSSSEDKITVHFINRDGETLTTKGKVGDSLLDVVVENNLDIDGFGACEGTLACSTCHLIFEDHIYEKLDAITDEENDMLDLAYGLTDRSRLGCQICLTKSMDIMTVRVPETVADARQSIDVGKTS [N162I] | -0.0298 | -0.611
MAAAGGARLLRAASAVLGGPAGRWLHHAGSRAGSSGLLRNRGPGGSAEASRSLSVSARARSSSEDKITVHFINRDGETLTTKGKVGDSLLDVVVENNLDIDGFGACEGTLACSTCHLIFEDHIYEKLDAITDEENDMLDLAYGLTDRSRLGCQICLTKSMDKMTVRVPETVADARQSIDVGKTS [N162K] | -0.0702 | 0.386
MAAAGGARLLRAASAVLGGPAGRWLHHAGSRAGSSGLLRNRGPGGSAEASRSLSVSARARSSSEDKITVHFINRDGETLTTKGKVGDSLLDVVVENNLDIDGFGACEGTLACSTCHLIFEDHIYEKLDAITDEENDMLDLAYGLTDRSRLGCQICLTKSMDHMTVRVPETVADARQSIDVGKTS [N162H] | -0.203 | 0.208
MAAAGGARLLRAASAVLGGPAGRWLHHAGSRAGSSGLLRNRGPGGSAEASRSLSVSARARSSSEDKITVHFINRDGETLTTKGKVGDSLLDVVVENNLDIDGFGACEGTLACSTCHLIFEDHIYEKLDAITDEENDMLDLAYGLTDRSRLGCQICLTKSMDPMTVRVPETVADARQSIDVGKTS [N162P] | 0.182 | -0.234
MAAAGGARLLRAASAVLGGPAGRWLHHAGSRAGSSGLLRNRGPGGSAEASRSLSVSARARSSSEDKITVHFINRDGETLTTKGKVGDSLLDVVVENNLDIDGFGACEGTLACSTCHLIFEDHIYEKLDAITDEENDMLDLAYGLTDRSRLGCQICLTKSMDLMTVRVPETVADARQSIDVGKTS [N162L] | -0.0365 | -0.341
MAAAGGARLLRAASAVLGGPAGRWLHHAGSRAGSSGLLRNRGPGGSAEASRSLSVSARARSSSEDKITVHFINRDGETLTTKGKVGDSLLDVVVENNLDIDGFGACEGTLACSTCHLIFEDHIYEKLDAITDEENDMLDLAYGLTDRSRLGCQICLTKSMDGMTVRVPETVADARQSIDVGKTS [N162G] | -0.601 | 
MAAAGGARLLRAASAVLGGPAGRWLHHAGSRAGSSGLLRNRGPGGSAEASRSLSVSARARSSSEDKITVHFINRDGETLTTKGKVGDSLLDVVVENNLDIDGFGACEGTLACSTCHLIFEDHIYEKLDAITDEENDMLDLAYGLTDRSRLGCQICLTKSMDMMTVRVPETVADARQSIDVGKTS [N162M] | 0.128 | -0.13
MAAAGGARLLRAASAVLGGPAGRWLHHAGSRAGSSGLLRNRGPGGSAEASRSLSVSARARSSSEDKITVHFINRDGETLTTKGKVGDSLLDVVVENNLDIDGFGACEGTLACSTCHLIFEDHIYEKLDAITDEENDMLDLAYGLTDRSRLGCQICLTKSMDRMTVRVPETVADARQSIDVGKTS [N162R] | 0.34 | -0.871
